Measured values taken from PMC12638876 (Nature Communications, 2025).

How the values were obtained:
[1] = target: the molecule itself; assay: split reporter
[2] = target: the molecule itself; assay: crystal structure

Protein	fold reduction of BiFC fluorescence against wild-type CXE15 [1] [fold]	binding result [2]
CXE15 C14D fused to split YFP (enzyme, Arabidopsis thaliana, UniProt Q9FG13 1-329, looked up) MGSLGEEPQVAEDDMGLLQLLSNGTVLRSESIDLITQQIPFKNNQTVLFKDSIYHKPNNLHLRLYKPISASNRTALPVVVFFHGGGFCFGSRSWPHFHNFCLTLASSLNALVVSPDYRLAPEHRLPAAFEDAEAVLTWLWDQAVSDGVNHWFEDGTDVDFDRVFVVGDSSGGNIAHQLAVRFGSGSIELTPVRVRGYVLMGPFFGGEERTNSENGPSEALLSLDLLDKFWRLSLPNGATRDHHMANPFGPTSPTLESISLEPMLVIVGGSELLRDRAKEYAYKLKKMGGKRVDYIEFENKEHGFYSNYPSSEAAEQVLRIIGDFMNNLS	> 2	
CXE15 E271Q mutant (enzyme, Arabidopsis thaliana, UniProt Q9FG13 1-329, looked up, disulphide bond between the two Cys14 residues in the crystal) MGSLGEEPQVAEDCMGLLQLLSNGTVLRSESIDLITQQIPFKNNQTVLFKDSIYHKPNNLHLRLYKPISASNRTALPVVVFFHGGGFCFGSRSWPHFHNFCLTLASSLNALVVSPDYRLAPEHRLPAAFEDAEAVLTWLWDQAVSDGVNHWFEDGTDVDFDRVFVVGDSSGGNIAHQLAVRFGSGSIELTPVRVRGYVLMGPFFGGEERTNSENGPSEALLSLDLLDKFWRLSLPNGATRDHHMANPFGPTSPTLESISLEPMLVIVGGSQLLRDRAKEYAYKLKKMGGKRVDYIEFENKEHGFYSNYPSSEAAEQVLRIIGDFMNNLS		binds
